According to publication PMC4378652 (Molecular and cellular endocrinology, 2015):

T1: rat FSH receptor (rat testis homogenate) (rat (endogenous in rat testis), UniProt P20395 18-692)
T1 sequence (looked up): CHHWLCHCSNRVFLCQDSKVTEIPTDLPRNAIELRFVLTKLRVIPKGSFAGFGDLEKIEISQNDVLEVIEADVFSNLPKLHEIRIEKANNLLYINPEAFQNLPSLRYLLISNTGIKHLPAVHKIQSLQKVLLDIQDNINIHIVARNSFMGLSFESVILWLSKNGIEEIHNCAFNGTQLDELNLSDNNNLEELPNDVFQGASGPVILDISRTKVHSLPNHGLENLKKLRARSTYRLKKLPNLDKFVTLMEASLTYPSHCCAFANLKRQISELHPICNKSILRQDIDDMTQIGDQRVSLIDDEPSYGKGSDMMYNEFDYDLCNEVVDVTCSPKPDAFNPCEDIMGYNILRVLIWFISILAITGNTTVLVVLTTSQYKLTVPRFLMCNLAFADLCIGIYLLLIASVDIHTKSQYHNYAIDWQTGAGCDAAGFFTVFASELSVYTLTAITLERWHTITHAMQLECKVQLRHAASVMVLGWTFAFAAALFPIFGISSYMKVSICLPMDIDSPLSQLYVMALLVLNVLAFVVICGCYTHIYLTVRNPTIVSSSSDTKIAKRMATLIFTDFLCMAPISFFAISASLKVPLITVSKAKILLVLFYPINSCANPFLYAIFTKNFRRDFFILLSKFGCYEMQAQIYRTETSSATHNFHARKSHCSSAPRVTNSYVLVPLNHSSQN


Molecular target: T1, rat FSH receptor (rat testis homogenate)
Assay: radioligand binding

ID50	Binder
114 ng	Pituitary hFSH^24/21 (AFP7298A) (ligand, N-glycosylated (positions not given) | mixture of FSHβ^24 (fully glycosylated) and FSHβ^21, FSHβ^24 the more abundant) chain 1: not shown chain 2: NSCELTNITIAIEKEECRFCISINTTWCAGYCYTRDLVYKDPARPKIQKTCTFKELVYETVRVPGCAHHADSLYTYPVATQCHCGKCDSDSTDCTVRGLGPSYCSFGEMKE
253 ng	Pituitary hFSH^24 (ligand, N-glycosylated (two N-glycans, positions not given) | fully glycosylated FSHβ^24 (N-glycans at Asn7 and Asn24)) chain 1: not shown chain 2: NSCELTNITIAIEKEECRFCISINTTWCAGYCYTRDLVYKDPARPKIQKTCTFKELVYETVRVPGCAHHADSLYTYPVATQCHCGKCDSDSTDCTVRGLGPSYCSFGEMKE
